From the supplement of paper PMC9112550, “Optimization of the antimicrobial peptide Bac7 by deep mutational scanning” (BMC Biology, 2022)

system: Escherichia coli TOP10; assay: shrunken log2 fold change of peptide-encoding DNA abundance (4.5 h post-induction vs induction); higher = less antimicrobial activity (less host growth inhibition); conditions: time post-induction: 4.5 h; library: site-saturation at positions 5, 18, 19, 20
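Also: peptides expressed intracellularly from a pBAD plasmid library in pooled LB shake-flask culture, induced with 0.3% L-arabinose, DNA abundance read by NGS, three biological replicates, DESeq2 with apeglm shrinkage.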

Sequence | shrunken log2 fold change
RRIRNRPPRLPRPRPRPGNKPRP | -0.408
RRIRLRPPRLPRPRPRPLPDPRP | 0.327
RRIRTRPPRLPRPRPRPHITPRP | -0.625
RRIRGRPPRLPRPRPRPTGHPRP | 0.448
RRIRCRPPRLPRPRPRPHGEPRP | 0.0148
RRIRGRPPRLPRPRPRPEGEPRP | 1.97
RRIRWRPPRLPRPRPRPPEHPRP | 0.544
RRIRPRPPRLPRPRPRPVMVPRP | 0.171
RRIRHRPPRLPRPRPRPAVIPRP | -0.0639
RRIRNRPPRLPRPRPRPRFAPRP | 0.164
RRIRCRPPRLPRPRPRPILAPRP | 0.127
RRIRDRPPRLPRPRPRPYEFPRP | 0.047
RRIRARPPRLPRPRPRPPYTPRP | 0.16
RRIRGRPPRLPRPRPRPGVMPRP | 1.05
RRIRMRPPRLPRPRPRPRPFPRP | 0.647
RRIRHRPPRLPRPRPRPCRDPRP | 0.0154
RRIRGRPPRLPRPRPRPPYMPRP | -0.0678
RRIRQRPPRLPRPRPRPPDTPRP | 0.103
RRIRQRPPRLPRPRPRPIYAPRP | -0.222
RRIRQRPPRLPRPRPRPFKIPRP | -0.00995
RRIRKRPPRLPRPRPRPPCLPRP | 0.123
RRIRCRPPRLPRPRPRPICVPRP | 0.0832
RRIRQRPPRLPRPRPRPHWLPRP | -0.222
RRIRRRPPRLPRPRPRPQYCPRP | -0.3
RRIRERPPRLPRPRPRPRAEPRP | -0.116

Sequence | shrunken log2 fold change
RRIRDRPPRLPRPRPRPQCRPRP | 0.0338
RRIRARPPRLPRPRPRPLCPPRP | 0.0472
RRIRTRPPRLPRPRPRPMGVPRP | -0.174
RRIRTRPPRLPRPRPRPDFMPRP | -0.15
RRIRVRPPRLPRPRPRPERHPRP | -0.0734
RRIRNRPPRLPRPRPRPDWFPRP | -0.0803
RRIRDRPPRLPRPRPRPDLQPRP | 1.54
RRIRKRPPRLPRPRPRPIAMPRP | 0.147
RRIRIRPPRLPRPRPRPRLYPRP | 0.0739
RRIRKRPPRLPRPRPRPNQDPRP | -0.184
RRIRSRPPRLPRPRPRPLMFPRP | -0.321
RRIRMRPPRLPRPRPRPGAMPRP | 0.609
RRIRDRPPRLPRPRPRPTCTPRP | 0.53
RRIRARPPRLPRPRPRPRGAPRP | 0.961
RRIRIRPPRLPRPRPRPHVPPRP | -0.00519
RRIRCRPPRLPRPRPRPASKPRP | -0.438
RRIRPRPPRLPRPRPRPYMAPRP | -1.07
RRIRGRPPRLPRPRPRPPYEPRP | 0.0264
RRIRRRPPRLPRPRPRPQNFPRP | -0.149
RRIRKRPPRLPRPRPRPMKSPRP | 0.37
RRIRFRPPRLPRPRPRPVFCPRP | -0.0281
RRIRYRPPRLPRPRPRPGICPRP | -0.179
RRIRCRPPRLPRPRPRPMIRPRP | -0.0688
RRIRMRPPRLPRPRPRPFKEPRP | -0.00865
RRIRIRPPRLPRPRPRPAVAPRP | 0.0259

Sequence | shrunken log2 fold change
RRIRARPPRLPRPRPRPCDLPRP | 0.15
RRIRTRPPRLPRPRPRPKKPPRP | -0.0293
RRIRDRPPRLPRPRPRPRSYPRP | -0.0236
RRIRMRPPRLPRPRPRPVCLPRP | 0.174
RRIRRRPPRLPRPRPRPWCDPRP | 0.0743
RRIRPRPPRLPRPRPRPGIPPRP | -0.157
RRIRWRPPRLPRPRPRPKQGPRP | 0.125
RRIRGRPPRLPRPRPRPKKFPRP | 0.582
RRIRRRPPRLPRPRPRPMDFPRP | 0.195
RRIRARPPRLPRPRPRPMTDPRP | -0.414
RRIRHRPPRLPRPRPRPSLHPRP | -0.652
RRIRLRPPRLPRPRPRPVDNPRP | -0.491
RRIRRRPPRLPRPRPRPDGMPRP | 0.0388
RRIRLRPPRLPRPRPRPFVSPRP | -0.281
RRIRFRPPRLPRPRPRPDSAPRP | -0.102
RRIRSRPPRLPRPRPRPGMPPRP | -0.122
RRIRYRPPRLPRPRPRPDFIPRP | -0.348
RRIRERPPRLPRPRPRPGSTPRP | -0.401
RRIRARPPRLPRPRPRPNQWPRP | 0.724
RRIRMRPPRLPRPRPRPERSPRP | 3.22
RRIRYRPPRLPRPRPRPQQAPRP | -0.0122
RRIRDRPPRLPRPRPRPITLPRP | -0.0934
RRIRERPPRLPRPRPRPVKKPRP | -0.179
RRIRDRPPRLPRPRPRPGHGPRP | -0.0236
RRIRARPPRLPRPRPRPIQAPRP | -0.0205

Sequence | shrunken log2 fold change
RRIRNRPPRLPRPRPRPSMCPRP | -0.0503
RRIRSRPPRLPRPRPRPWSLPRP | -0.0411
RRIRTRPPRLPRPRPRPMLGPRP | -0.0672
RRIRKRPPRLPRPRPRPKNDPRP | 0.186
RRIRVRPPRLPRPRPRPQQSPRP | -0.0738
RRIRRRPPRLPRPRPRPGQIPRP | 0.0802
RRIRKRPPRLPRPRPRPVIAPRP | 0.437
RRIRMRPPRLPRPRPRPGHMPRP | -0.203
RRIRQRPPRLPRPRPRPEYPPRP | -0.22
RRIRPRPPRLPRPRPRPRTTPRP | 0.332
RRIRPRPPRLPRPRPRPLGTPRP | 0.125
RRIRWRPPRLPRPRPRPRGAPRP | 0.586
RRIRFRPPRLPRPRPRPHIGPRP | -0.482
RRIRIRPPRLPRPRPRPWAMPRP | -0.493
RRIRRRPPRLPRPRPRPDMSPRP | -0.433
RRIRHRPPRLPRPRPRPMINPRP | -0.305
RRIRYRPPRLPRPRPRPMSNPRP | -0.709
RRIRMRPPRLPRPRPRPCIHPRP | 0.00462
RRIRDRPPRLPRPRPRPGNMPRP | -0.164
RRIRQRPPRLPRPRPRPRCNPRP | -0.515
RRIRPRPPRLPRPRPRPNVIPRP | -0.451
RRIRKRPPRLPRPRPRPSPMPRP | 0.132
RRIRMRPPRLPRPRPRPNSMPRP | -0.22
RRIRQRPPRLPRPRPRPRYYPRP | -0.465
RRIRPRPPRLPRPRPRPLPEPRP | 0.935

Sequence | shrunken log2 fold change
RRIRPRPPRLPRPRPRPSWFPRP | -0.248
RRIRCRPPRLPRPRPRPNACPRP | -0.0874
RRIRFRPPRLPRPRPRPMKYPRP | -0.664
RRIRSRPPRLPRPRPRPSCLPRP | -0.585
RRIRHRPPRLPRPRPRPTMYPRP | 0.000437
RRIRQRPPRLPRPRPRPKGWPRP | 0.502
RRIRKRPPRLPRPRPRPMSWPRP | 5.25
RRIRERPPRLPRPRPRPYHEPRP | -3.17
RRIRKRPPRLPRPRPRPHKRPRP | 0.434
RRIRHRPPRLPRPRPRPKRTPRP | 0.00166
RRIRHRPPRLPRPRPRPYALPRP | -0.078
RRIRIRPPRLPRPRPRPIKTPRP | -0.0553
RRIRSRPPRLPRPRPRPGQNPRP | 0.323
RRIRHRPPRLPRPRPRPGQEPRP | -0.00664
RRIRARPPRLPRPRPRPKRKPRP | 0.654
RRIRSRPPRLPRPRPRPNNFPRP | -0.667
RRIRFRPPRLPRPRPRPWHQPRP | -0.338
RRIRWRPPRLPRPRPRPLMRPRP | 0.858
RRIRRRPPRLPRPRPRPVQHPRP | -0.0478
RRIRVRPPRLPRPRPRPYLHPRP | -0.879
RRIRERPPRLPRPRPRPWWIPRP | -0.021
RRIRARPPRLPRPRPRPCHFPRP | -0.0257
RRIRYRPPRLPRPRPRPTHCPRP | 0.0602
RRIRKRPPRLPRPRPRPAGMPRP | 0.042
RRIRSRPPRLPRPRPRPLRHPRP | 0.375

Sequence | shrunken log2 fold change
RRIRVRPPRLPRPRPRPISFPRP | 0.0233
RRIRDRPPRLPRPRPRPIYYPRP | -0.253
RRIRVRPPRLPRPRPRPRMNPRP | -0.0411
RRIRKRPPRLPRPRPRPSHPPRP | 0.146
RRIRIRPPRLPRPRPRPSGHPRP | -0.397
RRIRMRPPRLPRPRPRPLDCPRP | 0.262
RRIRNRPPRLPRPRPRPPHNPRP | 0.216
RRIRHRPPRLPRPRPRPRQKPRP | -0.01
RRIRLRPPRLPRPRPRPTCYPRP | -0.371
RRIRIRPPRLPRPRPRPGGNPRP | -0.0373
RRIRFRPPRLPRPRPRPPRMPRP | 0.332
RRIRWRPPRLPRPRPRPRGKPRP | 0.227
RRIRFRPPRLPRPRPRPHFAPRP | 0.0808
RRIRRRPPRLPRPRPRPLFRPRP | 0.109
RRIRKRPPRLPRPRPRPMSGPRP | -0.211
RRIRPRPPRLPRPRPRPIDVPRP | -0.148
RRIRRRPPRLPRPRPRPRHPPRP | 0.524
RRIRDRPPRLPRPRPRPYEAPRP | -0.108
RRIRVRPPRLPRPRPRPWMQPRP | -0.106
RRIRSRPPRLPRPRPRPPNAPRP | 0.0817
RRIRVRPPRLPRPRPRPGYDPRP | -0.422
RRIRERPPRLPRPRPRPPTVPRP | 0.166
RRIRIRPPRLPRPRPRPHYYPRP | -0.413
RRIRQRPPRLPRPRPRPFARPRP | -0.0149
RRIRFRPPRLPRPRPRPDVIPRP | 0.0834
